From the domain aggregation screens of Martell et al. (2025)

Test: soluble fraction after stress (log2 fold change); higher = more stays soluble; pooled small domains, quantitative proteomics
Settings: stress: 75 degC
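Note: 20 min heating vs room temperature control held 20 min.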

Sequence	soluble fraction (log2)
HMKTKILAPIPGSIMVVDVKVGDTVKVGDRLVQLEAMKMENNITSEKAGKITAVLVTAGQKVLQNEVMIEL	-1.01
HMKTLLSMNIKNLRKKKNMTLEELAEKVGTSKQTIQRYESGKISNIPSDKIELLAKYLDTTPAKLMGW	-0.139
HMKTLNKRQQDIINLAREEGFVTVEHLSEYFKVTQQTIRRDLGYLSENLYLARTYGGAFFQS	-0.854
HMKTTKLEELDMQKEFILKNGKYGFGVYIGGKYIGLTDIGTVNSFKDSLQLPVVSLSDIDFKTFAEKF	-1.27
HMKTYEILFDILSRESDYISGEKLAQELGISRTSIWKAIQHLEKEGVHIESVKNKGYKLLSGDLLIAEKI	-1.77
HMKTYGGDNSLHKFDEHHSWMVAKYGPVVKQTINGETKWLKVKKDLTLAQVKKMKLEDVLLPKSQT	-0.534
HMKVDRLVSMILILLEQQRVGAQELADRFEVSVRTIYRDMEAINQAGIPVRSTSGVGGGFEIM	-0.471
HMKVFREERLQLILEKLIHEKKVVVSDLVKYFNVSPSLIRMDLAELEKRDLILRTHGGAILPD	-2.9
HMKVKEYKLVDWISTFTKNEGYGISQKAAMLLAEFLGDDLSRIANEIEKLKLLVEKGTTINDVHIEENI	-1.09
HMKVLFLESIEGSASMGEIKDVANGYARNFLFPNGFAVPATPKNLKNVEELQAKELEIQTERDNWAA	-0.016
HMKVSDLIGMLGRVTGELAPTGIVLVGNKTWTAISEDASVIASGEQVQVRSVAGLILTVSHQVD	-2.32
HMKVSVPDIMDNSSLRQAEAKLRALGFRVTEPEYISGEKDWVYSVTYKGRTLNAGDKVPHEALLTLHVGNG	-0.163
HMKVTADVVVADRLKAWIISNNLKPGDRLPTEQKLSEELGVARHTLREGIKRLSQLGIIGSRTGSGMYVKN	-1.06
HMKWIEILKSKDGNYALLQDEKDTQFVVASGYNPDAAEDQKWGHGSYFIYWNNKENKAEMLMNAIDLFRYR	-2.21
HMKYEFEFPYWSNKEAKHMIVTINYPNGTRATASIQDNDGSNPDYKRIMEEFGEEQIDANTEEGLKRR	-0.0803
HMKYEGEDEYYASLVTEKIAAIGTVTEESEDAIKEARAAYDALTSAQKKLVTNYDVLDEAEK	-0.144
HMKYGPSTVATLKVARLGEMGAFLDAETGDTSDDILLHKTQQTAPVKVGDEVEVFLYLDPKRRLTASMRV	-0.118
HMKYGPSTVAVLTVVRESEMGAFLDAETGRTNDDILLHKTQQTEPVHIGDQVKVFLYLDPKHRLTASMRVP	-1.03
HMKYNETEFKNLVAKLYNGEIEIVGKFTGLSYPILVKDKYGIMLSQKANLILNYRPTINIALNKTEYAMN	-0.289
HMKYSELLLEIILQSKEHPTAEQIFIEAKKRNPKIVQATVYNNLKNLLAQGRVIRISNPGQPDRYDNT	-1.83
HMKYVDYYATLGVARDADLATITKAYRKLARQTHPDLNQGADNEARFKAAAEAYATLKHPEKRAAYDELGQ	0.0183
HMKYWTISDLYSKLEEDQVELGAFSEDSNKVTVLDRQGYEHVIKILSSDVPALTELFRKKKVRFAVAG	-1.3
HMKYYIYQGVGASGELTKIAEVTDQKTYTVTGLQAKTTYRFAVSSYNGLRESTKSNIVTVTT	-0.134
HMLAAAVVVYATDKVNVRAEASETADVIGQLEAGSQTTRLEDKDGWSRIDYSNGTQGYMKSEFLSTEAPT	0.347
HMLADEPTGALDSKTSVQIMALLTEIAQDRLVIMVTHNPELADEYATRIVNLRDGVISDDSDPFNP	-0.0933
HMLAEEAFNKQAATAGYVYRDGSYHPAASVAQYDAMPRNYRTNTMAQELSRSQVESQLQQSQ	0.752
HMLAGKTYEVQTESGGKWTLVASYNVKSQAIQQAQALLESHKYSGVKVIAESDRKGEEVIFNEQSEVT	-0.0725
HMLALKSGQVVVGTIIRRLDNTTAMLRIGNQLFETSFAKGLPKSNHILLRYDAMQGNRFIFTMVE	-0.635

Sequence	soluble fraction (log2)
HMLANLNKELQNDAALLKQKAQGNSNLLAKIQDVEQQMKQVNTSSASDEAKAKELQTLQRKLTAYKKALA	-0.0577
HMLAVSVDKDGKVYIQDSETAVDAVTAKLRAISGNNSEIRIFVRGDADVNYGRIMEIMGVINAAGFRKVAL	-0.111
HMLDEIAGQKVRVLEEINNSEGTGKVMYRGVEWMARSVDDAVMAKDSIVTVQSISGVKLMVT	-0.184
HMLDEKAVRQYLLNTLENSEIKMDRQAIDLFLRLTDLDLSKMMRELQKILLYGQEQEVITVKEIEQ	-0.779
HMLDGFEVGMTVMKKSGTEIGFTGWPSFADKDELPIIERIDTSDSTLLLKFKDMSWWIKASLVEPS	-3.55
HMLDLPEISARIMEVFETKDRATISELSKLTGTNINTIKKHLSSLVENNYLIKHGKTRGAWYTKST	-0.126
HMLDLVSIGKRIKAERQKNGLTQEALAERIEVSAHYVYELERGLKAMSVPILLRMSEVLHTSTDYLLF	-3.34
HMLDNHPQSKKIRALWLEMAAAGVVRDSSEQALALWVKRETGISALRWLSNEQASSVIEKLKKWQRRAAG	-1.47
HMLDPKVFVGKAGINEGIAKLLLQAFDKADLVKVRFTAERDVMETQMQELARLTGSEVIGNVGRTATF	-0.0412
HMLEAMDSDEAAKVIEQIVNERADFVRSKGMGAIGPLMGPVMGALRGKVDGKQANELLTAAIKKLL	0.334
HMLEASVYTAEKSGDRLDAFLAEQAGITRSYAQKLIEGGQVTLGGVVPKKNYKLSAGEQVELILPEN	0.0466
HMLEKVLDNHIHKLRLQHKISQQELADAIGVSRKTISTVETGRFTPSVVIALKIAAHFSVSVEQVFTL	-1.14
HMLEPEVLDLIGQVKSVHHFSVTQSHQLEKLVRHAHTLGFEIAELKSLLASSPNAKSLLSSLDQKLEPLRM	-1.86
HMLEQEQFESKLLKAINNINETQRIAFLMHRIDGKKYAEIASELNISVKAVEKRIHLALIELKKEIENF	-0.747
HMLEQISDINILSGYAKEVIAENPKTVSDYLSGKAAAFQALVGQVMKKTGGRGNPVIIQEILKRLIHKK	-0.0597
HMLERKPVLVASRDLPALAVIGKDDLSVELLRTAPVGSYDRPEALLGKRVWVAVPAGSILSAATLEP	-0.366
HMLERPLKLKSHYVSTIYEKVAVQYSEGEEKKSVMGTLIEVNQDTIVLDDRGTIIEIPFKSITRAKTVF	-3.6
HMLETLVYPNPTTDKILLSSPVDYHLFSLKGELVLEGRGSSIEVSQLSKGVYFLNTKTQTFKIIK	-0.62
HMLGARSLNEAVARNLPQILAKYQLIHIAGKNGFNPELQGRGYVQYEYVDTELKDLMALADIVVSR	-1.52
HMLGERIKQIRKQKKMTQTDVATGIITKSMLSMIENGKATPSLPALQAIARRLQVTVEELML	-2.55
HMLGFELVGIRGNNPESTIIILERDDYRLVEQGQNINSSVIFSHIDGSRAYFFDGQTYTFLDI	-2.78
HMLGITEGSLVRVIRSPNFGKIGTVAELPAELRMMESETMVRIAIVEIEGTNFEIPRSNLEVLET	-1.6
HMLGKEVVRAYNISYAIDDKGSLQGDLTAALTGLIPLSKPPVLDQRNRSLYVTATPEQHKDVAALLAKL	-0.238
HMLGSGSKEQQLVILNNILERQVQAFNLQGGQEYPMVTLKNFYNTLSKMIENAGLKNVENYFVNPDVGKQM	-0.392
HMLHMKAALGELMSIPGMRSELAGTLFDRGYTSLAQLRAATLDDLERVNGLERADARRIHDFLRKS	-0.251
HMLHQSLVVNAASGRVTVSLDIVPDEDNPYAVLRATDDSDEPLAQVRVAPSFKLNRASALAWIESQFARP	-2.34
HMLHSEDATVVRQAIPLLERHVDAATVAVARRNLAQLEQFGRYPRRNQALGRISNPAENAYLRAER	0.0695
